Measurements reported in publication PMC9040844, “Escherichia coli Uses a Dedicated Importer and Desulfidase To Ferment Cysteine” (mBio, 2022).

Substrate: N[C@@H](CS)C(=O)O
Assay: purified protein
Format: biochemical, Escherichia coli
Details: 50 mM Tris pH 7.6, room temperature, anaerobic, Fe(II)/DTT-reactivated [4Fe-4S] enzyme

B1: CyuA (Escherichia coli K-12) (protein)
chain: MFDSTLNPLWQRYILAVQEEVKPALGCTEPISLALAAAVAAAELEGPVERVEAWVSPNLMKNGLGVTVPGTGMVGLPIAAALGALGGNANAGLEVLKDATAQAIADAKALLAAGKVSVKIQEPCDEILFSRAKVWNGEKWACVTIVGGHTNIVHIETHDGVVFTQQACVAEGEQESPLTVLSRTTLAEILKFVNEVPFAAIRFILDSAKLNCALSQEGLSGKWGLHIGATLEKQCERGLLAKDLSSSIVIRTSAASDARMGGATLPAMSNSGSGNQGITATMPVVVVAEHFGADDERLARALMLSHLSAIYIHNQLPRLSALCAATTAAMGAAAGMAWLVDGRYETISMAISSMIGDVSGMICDGASNSCAMKVSTSASAAWKAVLMALDDTAVTGNEGIVAHDVEQSIANLCALASHSMQQTDRQIIEIMASKAR
notes: full ORF in pET16b, N-terminal His10 tag kept, about 47 kDa; expressed in E. coli SR011 (BL21(DE3) katG katE) with isc operon
  Km: 200 µM
